Results published in patent publication US20240409639A1 (CELLDEX THERAPEUTICS, published 2024).

What was measured:
[1] = biological target: T1, recombinant human PD-1-msFc (human, UniProt Q15116 25-167, limits assumed); test: ELISA, plate coated with recombinant human PD-1-msFc
T1 construct: not shown: mouse Fc ('msFc')
Procedure: Microtiter plates were coated with recombinant human PD-1-msFc in PBS, and then blocked with 5% bovine serum albumin in PBS. […] The plates were washed with PBS/Tween and then incubated with a goat-anti-human IgG Fc-specific polyclonal reagent conjugated to horseradish peroxidase at 37° C. After washing, the plates were developed with HRP substrate, and analyzed at OD 450 using a microtiter plate reader.

[2] = biological target: T2, human PD-1 expressed on cells (human, UniProt Q15116 25-288); test: flow cytometry on HEK293 cells expressing human PD-1
T2 construct: whole, on cells; also called HEK293 cells expressing human PD-1; PD1 Effector cells
T2 sequence (Q15116 25-288): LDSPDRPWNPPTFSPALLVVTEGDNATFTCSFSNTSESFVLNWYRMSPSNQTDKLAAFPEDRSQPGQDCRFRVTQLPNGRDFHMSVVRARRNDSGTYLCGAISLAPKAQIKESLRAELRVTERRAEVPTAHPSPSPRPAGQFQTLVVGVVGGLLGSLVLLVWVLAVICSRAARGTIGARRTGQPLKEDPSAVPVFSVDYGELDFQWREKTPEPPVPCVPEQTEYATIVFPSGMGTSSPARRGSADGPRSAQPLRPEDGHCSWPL
Procedure: After 20 minutes, the cells were washed with PBS containing 0.1% BSA and 0.05% NaN₃ (PBA) and the bound antibodies were detected by incubating the cells with a PE labeled goat anti-human IgG Fc-specific probe. The excess probe was washed from the cells with PBA and the cell associated fluorescence was determined by analysis using a FACSCanto II™ instrument (BD Biosciences, NJ, USA) according to the manufacturer's directions.

T1 sequence (Q15116 25-167 limits assumed): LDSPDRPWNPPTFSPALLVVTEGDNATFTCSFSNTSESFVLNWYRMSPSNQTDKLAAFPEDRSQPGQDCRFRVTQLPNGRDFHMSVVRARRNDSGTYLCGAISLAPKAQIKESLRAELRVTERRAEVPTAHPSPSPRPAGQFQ

binding result [1]: binds | binding result [2]: binds
B1: bispecific construct CDX-585 (bispecific antibody, human IgG1, kappa)
heavy: QVQLVQSGAEVVKPGASVKISCKASGYTFTDYVMHWVRQAPGQSLEWMGVISTYHIPAVYNQKFKGKATMTVDTSTSTVYLELSSLRSEDTAVYYCAREVYGESYYFDVWGQGTTVTVSSASTKGPSVFPLAPSSKSTSGGTAALGCLVKDYFPEPVTVSWNSGALTSGVHTFPAVLQSSGLYSLSSVVTVPSSSLGTQTYICNVNHKPSNTKVDKKVEPKSCDKTHTCPPCPAPEAQGGPSVFLFPPKPKDTLYITREPEVTCVVVDVSHEDPEVKFNWYVDGVEVHNAKTKPREEQYNSTYRVVSVLTVLHQDWLNGKEYKCQVSNKALPAPIEKTISKAKGQPREPQVYTLPPSRDELTKNQVSLTCLVKGFYPSDIAVEWESNGQPENNYKTTPPVLDSDGSFFLYSKLTVDKSRWQQGNVFSCSVMHEALHNHYTQKSLSLSPGKGSSGGGGSDIQMTQSPSSLSASVGDRVTITCRASENIYSYLAWYQQKPGKAPKFLVYNADTLAEGVPSRFSGSGSGTDFTLTISSLQPEDFATYYCQHHYGTPFTFGCGTKLEIKGGGGSGGGGSGGGGSGGGGSQVQLVQSGAEVKKPGASVKVSCKASGYSFTGYTMHWVRQAPGQCLEWMGLINPYTGGTDYNQKFQGRVTMTVDRSTSTAYMELSSLRSEDTAVYYCARERPGGSQFIYYYALDYWGQGTTVTVSS
light: DIVMTQTPLSLPVTPGEPASISCRSSQSIVHSAGNTYLEWYLQKPGQSPQLLIYKVSNRFSGVPDRFSGSGSGTDFTLKISRVEAEDVGVYYCFQGSHVPYTFGGGTKVEIKRTVAAPSVFIFPPSDEQLKSGTASVVCLLNNFYPREAKVQWKVDNALQSGNSQESVTEQDSKDSTYSLSSTLTLSKADYEKHKVYACEVTHQGLSSPVTKSFNRGEC
notes: Tetravalent format, bivalent for each target; The Fc carries L234A, L235Q, K322Q (AQQ) and M252Y, S254T, T256 (YTE); The scFv is stabilised by a disulfide from Gly to Cys at positions 558 and 629 of the mature heavy chain; also called E1A9-7B1; bsAb
